Data published in patent US20240270860A1.

Assays:
Test in all cases: peptide-array ELISA (CYS.S) [Continued]
2LS2…2RPGWY2AL = target: T1, 2LS2…2RPGWY2AL
T1 sequence (peptide, 2 = Cys(ACM)): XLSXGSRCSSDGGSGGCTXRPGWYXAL

2LS2…2RPGWY2 = target: T2, 2LS2…2RPGWY2
T2 sequence (peptide, 2 = Cys(ACM)): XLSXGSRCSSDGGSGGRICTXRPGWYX

[1] = target: T3, 2TREQNRI2…
T3 sequence (peptide, 2 = Cys(ACM)): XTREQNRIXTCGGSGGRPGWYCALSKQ

2…2RPGWY2 = target: T4, 2…2RPGWY2
T4 sequence (peptide, 2 = Cys(ACM)): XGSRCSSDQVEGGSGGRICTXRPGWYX

[2] = target: T5, 2…2…
T5 sequence (peptide, 2 = Cys(ACM)): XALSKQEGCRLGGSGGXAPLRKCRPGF

[3] = target: T6, 2…
T6 sequence (peptide, 2 = Cys(ACM)): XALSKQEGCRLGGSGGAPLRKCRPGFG

[4] = target: T7, 2…; remark: listed apart in the source
T7 sequence (peptide, 2 = Cys(ACM)): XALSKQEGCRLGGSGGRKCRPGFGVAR

E2LS2…2RPGWY2AL = target: T8, E2LS2…2RPGWY2AL
T8 sequence (peptide, 2 = Cys(ACM)): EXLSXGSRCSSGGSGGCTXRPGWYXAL

E2LS2…2RPGWY2A = target: T9, E2LS2…2RPGWY2A
T9 sequence (peptide, 2 = Cys(ACM)): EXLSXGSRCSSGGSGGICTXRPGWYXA

[5] = target: T10, EGCRL2…2…
T10 sequence (peptide, 2 = Cys(ACM)): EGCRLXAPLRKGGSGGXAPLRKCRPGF

[6] = target: T11, EGCRL2…
T11 sequence (peptide, 2 = Cys(ACM)): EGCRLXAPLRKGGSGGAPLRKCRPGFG

[7] = target: T12, EGCRL2…; remark: listed apart in the source
T12 sequence (peptide, 2 = Cys(ACM)): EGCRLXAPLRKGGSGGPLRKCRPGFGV

[8] = target: T13, KQEGCRL2APLGGSGG2…
T13 sequence (peptide, 2 = Cys(ACM)): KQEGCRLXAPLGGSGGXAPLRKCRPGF

[9] = target: T14, KQEGCRL2…
T14 sequence (peptide, 2 = Cys(ACM)): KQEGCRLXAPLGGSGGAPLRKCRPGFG

[10] = target: T15, KQEGCRL2…; remark: listed apart in the source
T15 sequence (peptide, 2 = Cys(ACM)): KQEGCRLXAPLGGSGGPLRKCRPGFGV

[11] = target: T16, KQEGCRL2…; remark: listed apart in the source
T16 sequence (peptide, 2 = Cys(ACM)): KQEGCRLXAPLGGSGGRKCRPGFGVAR

PE2LS2…2RPGWY2AL = target: T17, PE2LS2…2RPGWY2AL
T17 sequence (peptide, 2 = Cys(ACM)): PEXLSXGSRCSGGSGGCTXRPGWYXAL

PE2LS2…2RPGWY2A = target: T18, PE2LS2…2RPGWY2A
T18 sequence (peptide, 2 = Cys(ACM)): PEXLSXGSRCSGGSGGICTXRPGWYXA

[12] = target: T19, QEGCRL2…
T19 sequence (peptide, 2 = Cys(ACM)): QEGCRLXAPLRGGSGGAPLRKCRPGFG

[13] = target: T20, QEGCRL2…; remark: listed apart in the source
T20 sequence (peptide, 2 = Cys(ACM)): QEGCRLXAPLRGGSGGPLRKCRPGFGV

[14] = target: T21, QNRI2…
T21 sequence (peptide, 2 = Cys(ACM)): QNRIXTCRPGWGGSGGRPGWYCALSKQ

[15] = target: T22, SKQEGCRL2APGGSGG2…
T22 sequence (peptide, 2 = Cys(ACM)): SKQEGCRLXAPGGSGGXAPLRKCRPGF

[16] = target: T23, SKQEGCRL2…
T23 sequence (peptide, 2 = Cys(ACM)): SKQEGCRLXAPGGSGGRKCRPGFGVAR

[17] = target: T24, TREQNRI2…
T24 sequence (peptide, 2 = Cys(ACM)): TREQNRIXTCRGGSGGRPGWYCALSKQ

VPE2LS2…2RPGWY2AL = target: T25, VPE2LS2…2RPGWY2AL
T25 sequence (peptide, 2 = Cys(ACM)): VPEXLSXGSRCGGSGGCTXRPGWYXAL

[18] = target: T26, WY2…2…
T26 sequence (peptide, 2 = Cys(ACM)): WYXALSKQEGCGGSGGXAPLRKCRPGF

[19] = target: T27, WY2…
T27 sequence (peptide, 2 = Cys(ACM)): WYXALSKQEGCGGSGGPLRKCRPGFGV

[20] = target: T28, Y2…
T28 sequence (peptide, 2 = Cys(ACM)): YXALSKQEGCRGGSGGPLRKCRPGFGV

[21] = target: T29, Y2…; remark: listed apart in the source
T29 sequence (peptide, 2 = Cys(ACM)): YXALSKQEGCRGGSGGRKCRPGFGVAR

[22] = target: T30, …2GGSGG2…
T30 sequence (peptide, 2 = Cys(ACM)): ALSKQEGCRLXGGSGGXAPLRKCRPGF

…2RPGWY2AL [23] = target: T31, …2RPGWY2AL
T31 sequence (peptide, 2 = Cys(ACM)): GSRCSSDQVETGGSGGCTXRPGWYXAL

…2RPGWY2AL [24] = target: T32, …2RPGWY2AL; remark: listed apart in the source
T32 sequence (peptide, 2 = Cys(ACM)): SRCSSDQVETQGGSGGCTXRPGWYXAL

…2RPGWY2A = target: T33, …2RPGWY2A
T33 sequence (peptide, 2 = Cys(ACM)): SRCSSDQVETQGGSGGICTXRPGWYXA

…2RPGWY2 = target: T34, …2RPGWY2
T34 sequence (peptide, 2 = Cys(ACM)): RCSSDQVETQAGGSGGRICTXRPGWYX

…2RPGWY [25] = target: T35, …2RPGWY
T35 sequence (peptide, 2 = Cys(ACM)): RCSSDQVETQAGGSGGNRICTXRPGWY

…2RPGWY [26] = target: T36, …2RPGWY; remark: listed apart in the source
T36 sequence (peptide, 2 = Cys(ACM)): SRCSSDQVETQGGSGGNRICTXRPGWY

…2…2RPGWY = target: T37, …2…2RPGWY
T37 sequence (peptide, 2 = Cys(ACM)): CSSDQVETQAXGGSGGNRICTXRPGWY

[27] = target: T38, …2…
T38 sequence (peptide, 2 = Cys(ACM)): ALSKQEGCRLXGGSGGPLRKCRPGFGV

[28] = target: T39, …2…; remark: listed apart in the source
T39 sequence (peptide, 2 = Cys(ACM)): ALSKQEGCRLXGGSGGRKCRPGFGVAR

[29] = target: T40, …2…; remark: listed apart in the source
T40 sequence (peptide, 2 = Cys(ACM)): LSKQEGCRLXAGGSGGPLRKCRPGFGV

[30] = target: T41, …2…; remark: listed apart in the source
T41 sequence (peptide, 2 = Cys(ACM)): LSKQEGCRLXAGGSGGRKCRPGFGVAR

Raw luminescence data (2LS2…2RPGWY2AL): 603
Raw luminescence data (2LS2…2RPGWY2): 436
Raw luminescence data [1]: 101
Raw luminescence data (2…2RPGWY2): 614
Raw luminescence data [2]: 439
Raw luminescence data [3]: 418
Raw luminescence data [4]: 443
Raw luminescence data (E2LS2…2RPGWY2AL): 605
Raw luminescence data (E2LS2…2RPGWY2A): 454
Raw luminescence data [5]: 604
Raw luminescence data [6]: 312
Raw luminescence data [7]: 450
Raw luminescence data [8]: 528
Raw luminescence data [9]: 242
Raw luminescence data [10]: 457
Raw luminescence data [11]: 430
Raw luminescence data (PE2LS2…2RPGWY2AL): 697
Raw luminescence data (PE2LS2…2RPGWY2A): 542
Raw luminescence data [12]: 340
Raw luminescence data [13]: 558
Raw luminescence data [14]: 240
Raw luminescence data [15]: 507
Raw luminescence data [16]: 430
Raw luminescence data [17]: 188
Raw luminescence data (VPE2LS2…2RPGWY2AL): 483
Raw luminescence data [18]: 327
Raw luminescence data [19]: 341
Raw luminescence data [20]: 381
Raw luminescence data [21]: 463
Raw luminescence data [22]: 560
Raw luminescence data (…2RPGWY2AL [23]): 464
Raw luminescence data (…2RPGWY2AL [24]): 391
Raw luminescence data (…2RPGWY2A): 388
Raw luminescence data (…2RPGWY2): 543
Raw luminescence data (…2RPGWY [25]): 247
Raw luminescence data (…2RPGWY [26]): 482
Raw luminescence data (…2…2RPGWY): 487
Raw luminescence data [27]: 446
Raw luminescence data [28]: 455
Raw luminescence data [29]: 434
Raw luminescence data [30]: 474
B1: antagonistic TNFR2 antibody TNFRAB1 (antibody, V domains shown)
VH: EVQLQESGGGLVKPGGSLKLSCAASGFTFSSYVMSWVRQTPEKRLEWVATISSGGSYTYYPDSVKGRFTISRDNAKNTLYLQMSSLRSEDTAMYYCARQRVDGYSSYWYFDVWGAGTAVTVSS
VL: DIVLTQSPAIMSASPGEKVTITCSASSSVYYMYWFQQKPGTSPKLWIYSTSNLASGVPVRFSGSGSGTSYSLTISRMEAEDAATYYCQQRRNYPYTFGGGTKLEIKR
